{"source": "paper PMC2953525", "about": "“Subtle Alterations in PCNA-Partner Interactions Severely Impair DNA Replication and Repair” (PLoS Biology, 2010)", "binders": {"B1": {"name": "GFP-tagged Rad27 (natural protein, yeast, UniProt P26793 1-382, looked up)", "chain": "MGIKGLNAIISEHVPSAIRKSDIKSFFGRKVAIDASMSLYQFLIAVRQQDGGQLTNEAGETTSHLMGMFYRTLRMIDNGIKPCYVFDGKPPDLKSHELTKRSSRRVETEKKLAEATTELEKMKQERRLVKVSKEHNEEAQKLLGLMGIPYIIAPTEAEAQCAELAKKGKVYAAASEDMDTLCYRTPFLLRHLTFSEAKKEPIHEIDTELVLRGLDLTIEQFVDLCIMLGCDYCESIRGVGPVTALKLIKTHGSIEKIVEFIESGESNNTKWKIPEDWPYKQARMLFLDPEVIDGNEINLKWSPPKEKELIEYLCDDKKFSEERVKSGISRLKKGLKSGIQGRLDGFFQVVPKTKEQLAAAAKRAQENKKLNKNKNKVTKGRR", "notes": "Rad27, yeast, tagged at its natural locus; source: yeast, GFP-tagged at the natural locus, in crude cell extract; not shown: GFP, C-terminal, kept"}, "B2": {"name": "proliferating cell nuclear antigen (PCNA), 6×Histidine-tagged (natural protein, yeast)", "chain": "MLEAKFEEASLFKRIIDGFKDCVQLVNFQCKEDGIIAQAVDDSRVLLVSLEIGVEAFQEYRCDHPVTLGMDLTSLSKILRCGNNTDTLTLIADNTPDSIILLFEDTKKDRIAEYSLKLMDIDADFLKIEELQYDSTLSLPSSEFSKIVRDLSQLSDSINIMITKETIKFVADGDIGSGSVIIKPFVDMEHPETSIKLEMDQPVDLTFGAKYLLDIIKGSSLSDRVGIRLSSEAPALFQFDLKSGFLQFFLAPKFNDEE", "notes": "PCNA (POL30), yeast; cloned into pET28 by NdeI and XhoI; also called WT PCNA; Pol30p; source: E. coli BL21, purified (Ni-NTA)"}, "B3": {"name": "Rad30, Q04049 1-632 (natural protein)", "chain": "MSKFTWKELIQLGSPSKAYESSLACIAHIDMNAFFAQVEQMRCGLSKEDPVVCVQWNSIIAVSYAARKYGISRMDTIQEALKKCSNLIPIHTAVFKKGEDFWQYHDGCGSWVQDPAKQISVEDHKVSLEPYRRESRKALKIFKSACDLVERASIDEVFLDLGRICFNMLMFDNEYELTGDLKLKDALSNIREAFIGGNYDINSHLPLIPEKIKSLKFEGDVFNPEGRDLITDWDDVILALGSQVCKGIRDSIKDILGYTTSCGLSSTKNVCKLASNYKKPDAQTIVKNDCLLDFLDCGKFEITSFWTLGGVLGKELIDVLDLPHENSIKHIRETWPDNAGQLKEFLDAKVKQSDYDRSTSNIDPLKTADLAEKLFKLSRGRYGLPLSSRPVVKSMMSNKNLRGKSCNSIVDCISWLEVFCAELTSRIQDLEQEYNKIVIPRTVSISLKTKSYEVYRKSGPVAYKGINFQSHELLKVGIKFVTDLDIKGKNKSYYPLTKLSMTITNFDIIDLQKTVVDMFGNQVHTFKSSAGKEDEEKTTSSKADEKTPKLECCKYQVTFTDQKALQEHADYHLALKLSEGLNGAEESSKNLSFGEKRLLFSRKRPNSQHTATPQKKQVTSSKNILSFFTRKK"}, "B4": {"name": "GFP-tagged Rad30 (natural protein, yeast, UniProt Q04049 1-632, looked up)", "chain": "B3 chain", "notes": "Rad30, yeast, tagged at its natural locus; source: yeast, GFP-tagged at the natural locus, in crude cell extract; not shown: GFP, C-terminal, kept"}, "B5": {"name": "Rad30 (natural protein, yeast, UniProt Q04049 1-632, looked up)", "chain": "B3 chain", "notes": "Rad30 (DNA polymerase), yeast; also called pBD-Rad30; source: yeast two-hybrid fusion (pBD-GAL4, strain YRG2)"}}, "key": {"[1]": {"molecular_target": "T1, pol30-Rad27E6 of the mutant strain (yeast, UniProt P15873 1-258, IDCL DIDADFLKIEEL to DGDYDILKIREL)", "T1 construct": "PCNA (POL30), yeast; source: yeast, sole source of PCNA under the native POL30 promoter, in crude cell extract", "T1 sequence": "B2 chain with I121G, A123Y, F125I, E129R", "assay": "ELISA; PCNA captured from crude yeast extract (3 mg/ml) on plates coated with anti-PCNA antibody; bound GFP-tagged partner detected by anti-GFP, normalised to the anti-His signal of PCNA", "conditions": "partners not purified"}, "[2]": {"molecular_target": "the molecule itself", "assay": "SEC; Superdex 200 10/300 GL, activity buffer (300 mM NaCl, 50 mM Tris-HCl, pH 8), monomer concentrations of 3–8 µM"}, "pol30-79 (yeast), P15873": {"molecular_target": "T2, pol30-79 (yeast), P15873", "T2 chain": "B2 chain with L126A, I128A", "assay": "two-hybrid; quantitative Y2H: generation time of the YRG2 strains in liquid SC-Leu-Trp-His, given relative to cells expressing WT PCNA; average of at least 3 experiments", "conditions": "remark: other sources report otherwise"}, "[3]": {"molecular_target": "T3, pol30-Rad30E2 of the mutant strain (yeast, UniProt P15873 1-258, IDCL DIDADFLKIEEL to DDDWDFLKILEL)", "T3 construct": "PCNA (POL30), yeast; source: yeast, sole source of PCNA under the native POL30 promoter, in crude cell extract", "T3 sequence": "B2 chain with I121D, A123W, E129L", "assay": "ELISA; PCNA captured from crude yeast extract (3 mg/ml) on plates coated with anti-PCNA antibody; bound GFP-tagged partner detected by anti-GFP, normalised to the anti-His signal of PCNA", "conditions": "partners not purified"}, "pol30-Rad27L1": {"molecular_target": "T4, pol30-Rad27L1 (yeast, UniProt P15873 1-258, IDCL DIDADFLKIEEL to D––VDILKIGEL)", "T4 construct": "PCNA (POL30), yeast; two residues after the first aspartic acid of the IDCL are deleted; source: yeast two-hybrid fusion (pAD-GAL4, strain YRG2)", "T4 sequence": "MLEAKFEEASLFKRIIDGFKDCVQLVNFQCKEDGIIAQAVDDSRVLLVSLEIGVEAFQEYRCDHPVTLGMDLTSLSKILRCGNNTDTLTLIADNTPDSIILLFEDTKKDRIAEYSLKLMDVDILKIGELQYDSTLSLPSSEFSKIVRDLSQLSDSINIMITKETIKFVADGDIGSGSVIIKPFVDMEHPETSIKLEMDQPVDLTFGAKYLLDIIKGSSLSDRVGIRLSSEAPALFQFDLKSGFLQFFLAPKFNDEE", "assay": "two-hybrid; pAD-GAL4-PCNA WT or mutant (called bait) and pBD-GAL4-partner (called prey) in strain YRG2; 10-fold serial dilutions spotted on SC-Leu-Trp-His plates, 30°C, 3 d; growth similar to WT PCNA is denoted 1", "conditions": "partners not purified"}, "pol30-Rad27L2": {"molecular_target": "T5, pol30-Rad27L2 (yeast, UniProt P15873 1-258, IDCL DIDADFLKIEEL to D––VDTLKITEL)", "T5 construct": "PCNA (POL30), yeast; two residues after the first aspartic acid of the IDCL are deleted; source: yeast two-hybrid fusion (pAD-GAL4, strain YRG2)", "T5 sequence": "T4 sequence with I123T, G127T", "assay": "two-hybrid; pAD-GAL4-PCNA WT or mutant (called bait) and pBD-GAL4-partner (called prey) in strain YRG2; 10-fold serial dilutions spotted on SC-Leu-Trp-His plates, 30°C, 3 d; growth similar to WT PCNA is denoted 1", "conditions": "partners not purified"}, "pol30-Rad30E2": {"molecular_target": "T6, pol30-Rad30E2 (yeast, UniProt P15873 1-258, IDCL DIDADFLKIEEL to DDDWDFLKILEL)", "T6 construct": "PCNA (POL30), yeast; source: yeast two-hybrid fusion (pAD-GAL4, strain YRG2)", "T6 sequence": "B2 chain with I121D, A123W, E129L", "assay": "two-hybrid; quantitative Y2H: generation time of the YRG2 strains in liquid SC-Leu-Trp-His, given relative to cells expressing WT PCNA; average of at least 3 experiments", "conditions": "partners not purified"}, "pol30-Rad30E9": {"molecular_target": "T7, pol30-Rad30E9 (yeast, UniProt P15873 1-258, IDCL DIDADFLKIEEL to DNDWDFLKIDEL)", "T7 construct": "PCNA (POL30), yeast; also called Pol30-Rad30E9p; source: yeast two-hybrid fusion (pAD-GAL4, strain YRG2)", "T7 sequence": "B2 chain with I121N, A123W, E129D", "assay": "two-hybrid; quantitative Y2H: generation time of the YRG2 strains in liquid SC-Leu-Trp-His, given relative to cells expressing WT PCNA; average of at least 3 experiments", "conditions": "partners not purified"}}, "note": "Where a chain is given by its changes, count along the chain named."}
{"binder": "B1", "values": [{"measurement": "increase in the amount of complex relative to the POL30 strain", "setting": "[1]", "result": 17, "unit": "%"}]}
{"binder": "B2", "values": [{"measurement": "stoichiometry N", "setting": "[2]", "result": 3}]}
{"binder": "B3", "values": [{"measurement": "fold change in affinity relative to WT PCNA (Y2H generation time)", "setting": "pol30-79 (yeast), P15873", "result": 0.4, "unit": "fold"}]}
{"binder": "B4", "values": [{"measurement": "increase in the amount of complex relative to the POL30 strain", "setting": "[3]", "result": 70, "unit": "%"}]}
{"binder": "B5", "values": [{"measurement": "fold change in affinity relative to WT PCNA (Y2H)", "setting": "pol30-Rad27L1", "result": 0.4, "unit": "fold"}, {"measurement": "fold change in affinity relative to WT PCNA (Y2H)", "setting": "pol30-Rad27L2", "result": 0.5, "unit": "fold"}, {"measurement": "fold change in affinity relative to WT PCNA (Y2H generation time)", "setting": "pol30-Rad30E2", "result": 1.4, "unit": "fold"}, {"measurement": "fold change in affinity relative to WT PCNA (Y2H generation time)", "setting": "pol30-Rad30E9", "result": 1.6, "unit": "fold"}]}
